The target in assay [1] is asialoglycoprotein receptor on the surface of immortalized human hepatocyte HepG2 cells (human) (UniProt P07306). Nature of the assay: cell-based or functional assay.
For assay [2] the target is unchanged. Kind of assay: flow cytometry competition on HepG2 cells: ASOR against DNP-AF3 (40 nM)-mediated association of α-DNP antibody (100 nM) with ASGPR.

This is an account of results in US20250269043A1, “TARGETED BIFUNCTIONAL DEGRADERS” (YALE UNIVERSITY, priority 2019, published 2025).

Chain of asialoglycoprotein receptor on the surface of immortalized human hepatocyte HepG2 cells (human) (P07306 whole entry, chain 1 of 2): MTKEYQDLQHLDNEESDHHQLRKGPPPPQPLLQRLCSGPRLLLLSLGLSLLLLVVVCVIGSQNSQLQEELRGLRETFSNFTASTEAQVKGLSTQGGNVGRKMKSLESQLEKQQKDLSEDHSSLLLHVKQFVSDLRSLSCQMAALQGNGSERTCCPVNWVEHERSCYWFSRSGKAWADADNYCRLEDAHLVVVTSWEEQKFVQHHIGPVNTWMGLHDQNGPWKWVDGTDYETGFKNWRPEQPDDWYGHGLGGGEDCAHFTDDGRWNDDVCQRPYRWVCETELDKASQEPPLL
Chain of asialoglycoprotein receptor on the surface of immortalized human hepatocyte HepG2 cells (human) (P07307 whole entry, chain 2 of 2, further chain): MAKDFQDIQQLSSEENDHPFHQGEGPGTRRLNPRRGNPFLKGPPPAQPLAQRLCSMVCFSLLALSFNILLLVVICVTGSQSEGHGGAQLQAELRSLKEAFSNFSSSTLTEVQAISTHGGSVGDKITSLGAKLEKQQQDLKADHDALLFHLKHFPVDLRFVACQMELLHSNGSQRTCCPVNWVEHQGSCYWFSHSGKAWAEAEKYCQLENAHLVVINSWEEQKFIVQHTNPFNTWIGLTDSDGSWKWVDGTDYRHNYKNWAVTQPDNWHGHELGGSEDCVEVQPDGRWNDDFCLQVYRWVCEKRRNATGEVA

On to asialoorosomucoid (ligand), for which the mean fluorescence of the cell population (DNP-AF3-mediated α-DNP antibody endocytosis, HepG2, flow cytometry); about 1.31e6 without inhibitor (mean fluorescence) in assay [1] stood at 466000. Also, the percent decrease of ternary complex formation at 2.38 µM ASOR in assay [2] turned out to be 70%.
